Data reported in patent US20250270315A1 (ELPISCIENCE SUZHOU BIOPHARMA, published 2025).
Positions count from the first letter of the chain named.

B1: HEFLB (antibody, V domains shown)
VH: EVQLVQSGAEVKKPGESLRISCKASGYSFTSYWVHWVRQMPGKGLEWMGNIDPSDSDTHYSPSFQGHVTLSVDKSISTAYLQLSSLKASDTAMYYCVRGGTGTLAYFAYWGQGTLVTVSS
VL: DVVMTQSPLSLPVTLGQPASISCRSSQSLVHSYGNTYLYWFQQRPGQSPRLLIYRVSNRFSGVPDRFSGSGSGTDFTLKISRVEAEDVGVYYCFQGTHVPYTFGGGTKVEIK
B2: 005 (antibody, V domains shown)
VH: EVKLVESGGGLVQPGGSLSLSCAASGFTFTDYYMSWVRQPPGKALEWLGFIKNEANGYTTESSASVKGRFTISRDNSQSILYLQMNALRAEDSATYYCARYDYYGSNYNWYFDAWGTGTTVTVSS
VL: DIVMTQSQKFMSPSVGDRVSITCKASQNVRTAVAWYQQKPGQSPKVLIHLASKRHTGVPDRFTGSGSGTDFTLTISNVQSEDLADYFCLQHWIHPLTFGAGTKLELK
notes: Mouse monoclonal hybridoma antibody purified on Protein A; also called antibody 005; hybridoma antibody 005
B3: 059 (antibody, V domains shown)
VH: QVQLQQSGPELVKPGASVKMSCKASGYTFSEYVLSWVKQRTGQGLEWIGEIYPGTITTYYNEKFKGKATLTADKSSNTAYIQLTSLTSEDSAVYFCGRFYDYDGGWFAYWGQGTLLTVSA
VL: ENVLTQSPEKMAVSLGQKVTMTCSASSSVSSSDLHWYQQKSGASPKPLIHGTSNLASGVPARFSGSGSGTSYSLTISSVEAEDAATYYCQQWSGYPWTFGGGTNLEIK
notes: Mouse monoclonal hybridoma antibody; also called antibody 059; hybridoma antibody 059
B4: 071 (antibody, V domains shown)
VH: QIQLVQSGPELKKPGETVKISCKASGYTFTTYGMSWVKQAPGKGLKWMVWINTYSGVPTYADDFQGRFAFSLETSASTSYLQINNLRNEDTATYFCARDPHYYGTSPAWFAYWGQGTLVTVSA
VL: DIVMTQSQKFMSTTIGDRVIITCKASQIVGIAVAWYQQKPGQSPKLLIYSASNRFTGVPDRFTGSGSGTDFTLTISNMQSEDLADYFCQQYSTYPFTFGSGTKLEIK
notes: Mouse monoclonal hybridoma antibody; also called antibody 071; hybridoma antibody 071
B5: 073 (antibody, V domains shown)
VH: B4 VH with Q65K, R87K, T105S, A111V
VL: B4 VL with I20S, K24E, F55Y, D85N, T93A, I106V
notes: Mouse monoclonal hybridoma antibody; also called antibody 073; hybridoma antibody 073
B6: 015 (antibody, V domains shown)
VH: EVQLQQSGVEVVQPGASVKLSCTASGFNIEAYYMHWVKQRTEQGLEWIGRIDPEDGESKYAPKFQGKATMTADTSSSTAYLQLSSLTSDDTAVYYCVRGSYEYWGQGTTLTVSS
VL: QIVLTQSPAIMSASPGEKVTLTCSASSSVSSSYLYWYQQKPGSSPKLWIYSTSNLASGVPPRFSGSGSGTSYSLTISSMQAEDAASYFCYQWSSYPYTFGGGTKLEIK
notes: Mouse monoclonal hybridoma antibody; also called antibody 015; hybridoma antibody 015
B7: 025 (antibody, V domains shown)
VH: EVQLQQSGAELVKPGASVKLSCTASGFNIKDYYMHWVKQRTEQGLEWIGRIDPEDGETKYAPKFQGKATITADTSSNTAYLQLSSLTSEDTAVYYCDRGLAYWGQGTLVTVSA
VL: B6 VL with P61A, Q80E, Y90H
notes: Mouse monoclonal hybridoma antibody; also called antibody 025; hybridoma antibody 025
B8: 042 (antibody, V domains shown)
VH: QIQLVQSGPELKKPGETVKISCRASGYTFTTYGMSWVKQAPGKGLRWMGWINTYSGVSTCADDFKGRFAFSLETSATTAYLQIHNLTNEDTATYFCARDPHSYGNSPAWFPYWGQGTLVTVSA
VL: B4 VL with G16R, I20S, I28N, A32S, P40S, F55Y, T93S, F96L, E105A
notes: Mouse monoclonal hybridoma antibody; also called antibody 042; hybridoma antibody 042

The binders below were run against T1, full length human SIRPα v1 stably expressed on CHOK1 or 293F cells (human, UniProt P78324 31-504) (assay: competitive FACS, mFc-CD47 ECD on CHOK1-human SIRPα v1 cells).
T1 construct: whole, on cells; also called CHOK1-human SIRPα v1; CHOK1-hSIRPα v1
T1 sequence (P78324 31-504): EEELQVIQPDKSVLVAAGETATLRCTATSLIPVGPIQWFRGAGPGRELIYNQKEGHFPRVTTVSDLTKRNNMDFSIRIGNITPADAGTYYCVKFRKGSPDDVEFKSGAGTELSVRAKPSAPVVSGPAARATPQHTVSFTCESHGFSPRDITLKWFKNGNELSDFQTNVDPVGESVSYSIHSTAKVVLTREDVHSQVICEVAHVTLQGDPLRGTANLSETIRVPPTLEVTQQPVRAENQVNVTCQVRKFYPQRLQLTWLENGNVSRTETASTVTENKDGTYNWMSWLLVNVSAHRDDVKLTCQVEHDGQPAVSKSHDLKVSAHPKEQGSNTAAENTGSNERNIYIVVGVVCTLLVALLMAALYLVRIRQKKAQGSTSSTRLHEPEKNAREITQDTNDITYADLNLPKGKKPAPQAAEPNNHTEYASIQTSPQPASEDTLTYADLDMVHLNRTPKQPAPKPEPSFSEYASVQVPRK
Description: Competitive FACS assay was also set up to further compare the blocking activity of the humanized antibodies and reference antibodies. Briefly antibody and mFc tagged human CD47 ECD recombinant protein were co-incubated with CHOK1 cells stably expressing human SIRPα v1 (FIG. 16A) or human SIRPα v2 (FIG. 16B). After washing, dye labeled anti-mouse Fc 2nd antibody (Sigma) was added and incubated at 37° C. for 1 hour. Fluorescence intensity was detected. Blocking ratio was determined by blockade of human CD47 ECD recombinant protein binding to SIRPα expressed CHOK1 cells. […] In particular, HEFLB doesn't work at all for human SIRPα v2.
In the case of B1, the IC50 is reported as 0.94 nM and the “TOP blocking (%)” value is reported as 97.6%.

Each binder was assayed against T2, Fc tagged human SIRPα v1 ECD recombinant protein (human, UniProt P78324 31-370) (assay: ELISA, coated Fc tagged human SIRPα v1 ECD).
T2 construct: range 1-370; also called hFc tagged human SIRPα v1 ECD; not shown: human IgG Fc (hFc) tag
T2 sequence (P78324 31-370 limits assumed): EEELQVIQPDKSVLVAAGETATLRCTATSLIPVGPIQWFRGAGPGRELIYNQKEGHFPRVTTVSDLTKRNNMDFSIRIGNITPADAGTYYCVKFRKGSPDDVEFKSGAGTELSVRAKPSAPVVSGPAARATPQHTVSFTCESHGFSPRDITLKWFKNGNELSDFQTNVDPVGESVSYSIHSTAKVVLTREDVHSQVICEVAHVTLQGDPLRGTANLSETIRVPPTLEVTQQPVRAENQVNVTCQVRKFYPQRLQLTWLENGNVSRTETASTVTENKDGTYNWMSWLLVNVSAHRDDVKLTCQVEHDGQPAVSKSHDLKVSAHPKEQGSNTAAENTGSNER
Description: (§1) Binding specificity of the purified hybridoma antibodies against human SIRPα variants was detected by ELISA assay using recombinant proteins of Fc tagged human SIRPα v1 ECD and human SIRPα v2 ECD. Briefly the antibodies were incubated with ELISA microplate coated antigens at 37° C. for 1 hour. After washing, horseradish peroxidase (HRP) labeled anti-mouse IgG 2nd Ab (Sigma) was added and incubated at 37° C. for 1 hour. Then, 100 μl/well of TMB solution (Biotechnology) was added. After incubation for 15 minutes at room temperature, the reaction was stopped by the addition of 50 ul of 1N HCl. OD 450 nm was read and EC₅₀ was calculated using GraphPad Prism9.0. Other than HEFLB, all antibodies as tested bind to both human SIRPα v1 and human SIRPα v2. HEFLB can only bind to human SIRPα v1 but not human SIRPα v2.
B2 showed an EC50 of 0.13 nM. B3 was tested, and the EC50 was 0.03 nM. B4 was tested, and the EC50 was 0.03 nM. B5 gave an EC50 of 0.03 nM. B1 showed an EC50 of 0.17 nM. B6 gave an EC50 of 0.1 nM. B7 was tested, and the EC50 was 0.04 nM. B8 showed an EC50 of 0.03 nM.

Each binder was assayed against full length human SIRPα v1 with a small beta-gal fragment (ED) fused to its C-terminal, expressed in K562 … (human, UniProt P78324 31-504) (assay: cell-based or functional assay).
full length human SIRPα v1 with a small beta-gal fragment (ED) fused to its C-terminal, expressed in K562 …, sequence (P78324 31-504): as the sequence (P78324 31-504) above
For B2, the “SHP-1 recruitment (% blocking), Test I” value was 71% and the “SHP-1 recruitment (% blocking), Test II” value was 82.7%. In the case of B3, the “SHP-1 recruitment (% blocking), Test I” value is reported as 77.5% and the “SHP-1 recruitment (% blocking), Test II” value is reported as 80.2%. For B4, the “SHP-1 recruitment (% blocking), Test I” value was 77.2% and the “SHP-1 recruitment (% blocking), Test II” value was 72.6%. With B5 the “SHP-1 recruitment (% blocking), Test I” value was 76.9% and the “SHP-1 recruitment (% blocking), Test II” value was 75.9%. For B1, the “SHP-1 recruitment (% blocking), Test I” value was 46.8% and the “SHP-1 recruitment (% blocking), Test II” value was 50.3%. In the case of B6, the “SHP-1 recruitment (% blocking), Test I” value is reported as 83.6% and the “SHP-1 recruitment (% blocking), Test II” value is reported as 89.6%. B7 was tested, and the “SHP-1 recruitment (% blocking), Test I” value was 83.9% and the “SHP-1 recruitment (% blocking), Test II” value was 91.2%. For B8, the “SHP-1 recruitment (% blocking), Test I” value was 84.8% and the “SHP-1 recruitment (% blocking), Test II” value was 76.1%.

Each binder was assayed against T1, full length human SIRPα v1 stably … (assay: FACS, CHOK1-human SIRPα v1 cells).
Description: (§2) Species cross reactivity of the purified hybridoma antibodies against human, cyno and mouse SIRPα was determined by FACS assay using CHOK1 cells stably expressing human SIRPα v1, CHOK 1-cyno SIRPα and C57BL/6 mouse SIRPα. Briefly the antibodies were incubated with 2×10⁵ target cells at 4° C. for 1 hour. After washing, fluorescence labeled anti-mouse IgG 2nd antibody (Life Technologies) was added and incubated at 4° C. for 1 hour. Geometric median fluorescence intensity was detected and EC₅₀ was calculated using GraphPad Prism9.0. Other than HEFLB, all antibodies as tested can bind to cyno SIRPα. None of tested antibodies can bind to C57BL/6 mouse SIRPα.
B2 was tested, and the EC50 was 1.8 nM. In the case of B3, the EC50 is reported as 0.1 nM. Binder B4 has an EC50 of 0.2 nM. B5 gave an EC50 of 0.2 nM. In the case of B1, the EC50 is reported as 11.2 nM. B6 showed an EC50 of 1 nM. B7 gave an EC50 of 0.9 nM. B8 was tested, and the EC50 was 0.2 nM.

The binders below were run against T3, human SIRPα v1 ECD recombinant protein (tag not given) (human, UniProt P78324 31-373) (assay: competitive ELISA, biotin human SIRPα v1 ECD on coated human CD47 ECD).
T3 construct: extracellular domain; also called biotin labeled soluble human SIRPα v1 ECD recombinant protein; ELISA microplate coated human SIRPα v1 ECD
T3 sequence (P78324 31-373): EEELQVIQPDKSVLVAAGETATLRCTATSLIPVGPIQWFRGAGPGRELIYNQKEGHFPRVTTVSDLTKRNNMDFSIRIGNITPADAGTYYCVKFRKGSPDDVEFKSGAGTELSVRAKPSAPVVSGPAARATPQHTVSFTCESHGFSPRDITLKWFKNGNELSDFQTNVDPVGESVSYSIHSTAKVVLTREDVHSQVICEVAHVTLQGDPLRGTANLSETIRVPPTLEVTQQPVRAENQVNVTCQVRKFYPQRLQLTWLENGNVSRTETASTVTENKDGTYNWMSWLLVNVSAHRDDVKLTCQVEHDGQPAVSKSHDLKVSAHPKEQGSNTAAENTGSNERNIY
Description: Competitive ELISA assay was used to determine whether the purified hybridoma antibodies can block CD47 and SIRPα interaction. Briefly, antibody and biotin labeled soluble human SIRPα v1 ECD recombinant protein were co-incubated with ELISA microplate coated human CD47 ECD recombinant protein. After washing, HRP labeled streptavidin (HRP-SA, Sigma) was added and incubated at 37° C. for 1 hour. Then, 100 μl/well of TMB solution (Biotechnology) was added. After incubation for 15 minutes at room temperature, the reaction was stopped by the addition of 50 μl of 1N HCl. OD 450 nm was read. The blocking ratios were determined by blockade of biotin labeled human SIRPα v1 ECD recombinant protein binding to ELISA microplate coated human CD47 ECD recombinant protein. Other than 005, all antibodies as tested can block human CD47 and human SIRPα v1 interaction.
B3 was tested, and the IC50 was 0.12 nM. For B4, the IC50 was 0.17 nM. B5 gave an IC50 of 0.16 nM. For B1, the IC50 was 0.5 nM. In the case of B6, the IC50 is reported as 0.3 nM. For B7, the IC50 was 0.15 nM. For B8, the IC50 was 0.14 nM.

What follows are binders tested against T4, Fc tagged human SIRPα v2 ECD recombinant protein (human) (assay: ELISA, coated Fc tagged human SIRPα v2 ECD).
T4 construct: range 1-369; also called hFc tagged human SIRPα v2 ECD
Description: as §1
B2 showed an EC50 of 0.12 nM. Binder B3 has an EC50 of 0.1 nM. In the case of B4, the EC50 is reported as 0.02 nM. B5 was tested, and the EC50 was 0.03 nM. Binder B6 has an EC50 of 0.15 nM. B7 was tested, and the EC50 was 0.06 nM. B8 gave an EC50 of 0.03 nM.

These binders were tested against T5, C57BL/6 mouse SIRPα stably expressed on CHOK1 cells (C57BL/6 mouse, UniProt P97797 32-513) (assay: FACS, CHOK1-C57BL/6 mouse SIRPα cells, MFI at 100 nM).
T5 construct: whole, on cells; also called CHOK1-C57BL/6 mouse SIRPα
T5 sequence (looked up): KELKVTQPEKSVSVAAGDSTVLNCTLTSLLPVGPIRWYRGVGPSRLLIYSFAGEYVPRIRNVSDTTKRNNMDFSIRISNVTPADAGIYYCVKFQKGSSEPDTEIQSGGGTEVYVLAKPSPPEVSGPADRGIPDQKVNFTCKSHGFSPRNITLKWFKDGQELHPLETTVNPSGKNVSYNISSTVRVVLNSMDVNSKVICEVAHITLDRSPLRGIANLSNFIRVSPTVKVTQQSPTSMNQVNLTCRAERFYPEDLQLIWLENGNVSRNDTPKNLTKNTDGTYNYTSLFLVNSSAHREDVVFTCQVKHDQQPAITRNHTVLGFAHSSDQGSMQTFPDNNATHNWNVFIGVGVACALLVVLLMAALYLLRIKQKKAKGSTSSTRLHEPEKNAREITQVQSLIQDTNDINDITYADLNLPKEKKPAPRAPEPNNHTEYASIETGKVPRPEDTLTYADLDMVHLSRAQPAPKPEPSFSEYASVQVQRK
Description: as §2
B2: no binding (tested: 100 nM). B3: no binding (tested: 100 nM). B4: no binding (tested: 100 nM). B5: no binding (tested: 100 nM). B1: no binding (tested: 100 nM). B6: no binding (tested: 100 nM). B7: no binding (tested: 100 nM). B8: no binding (tested: 100 nM).
